In PMC11891404, “Thermodynamic versus kinetic basis for the high conformational stability of nanobodies for therapeutic applications” (Febs Letters, 2024):

Target: T1, AGT-LM, minor allele of the human alanine glyoxylate aminotransferase (Homo sapiens, AGXT minor allele (AGT-LM), UniProt P21549, strain)
T1 construct: alanine:glyoxylate aminotransferase, human, minor allele (AGT-LM)
Experiment: SPR; Biacore T200; His-tagged NB-AGT captured on a Ni-loaded NTA chip and covalently immobilised (EDC/NHS); AGT-LM injected at 0.74-60 nM in HBS-EP+ (10 mM HEPES, 150 mM NaCl, 3 mM EDTA, 0.05% Tween 20), single cycle kinetics, 120 s pulses, 70 uL/min; 25 °C; 1:1 interaction model
Details: both partners purified

| Binder | Kd [nM] |
| --- | --- |
| NB-AGT-1 (VHH, also in the AlphaFold 2 model files of Data S1; Selected by phage display from an immunised llama; Covalently immobilised on the NTA chip after capture by its His tag; also called NB-1; nanobody 1 raised against AGT-LM; source: E. coli BL21 (DE3), pET-24(+), purified (IMAC, SuperDex 75 SEC); not shown: His6, C-terminal, kept) VHH: QVQLVESGGGLVQAGDSLRLSCAASGLAFSTYGMGWFRQAPGKEREFVADINWSGSSTYVADSVKGRFTISRDNAKNTVYLQMNRLKPEDTAVYSCAAAPGGGLRAGPSRRYEYWGQGTQVTVSS | 3.8 |
| NB-AGT-6 (VHH, also in the AlphaFold 2 model files of Data S1; Selected by phage display from an immunised llama; Covalently immobilised on the NTA chip after capture by its His tag; also called NB-6; nanobody 6 raised against AGT-LM; source: E. coli BL21 (DE3), pET-24(+), purified (IMAC, SuperDex 75 SEC); not shown: His6, C-terminal, kept) VHH: QVQLVESGGGSVQTGGSLRLACVASGFTSDHYSIGWFRQAPGKEREGVSCIGMHDGSTKYAESVKGRFTISSDNDKNTVYLQMNSLKPEDTAVYYCAAGPLVLLDSDTYQSWGEGTQVTVSS | ~0.005 |
